Results from patent US20110039770A1 (PHARMAGAP, published 2011).
Where two headings read alike, the source gives them in different places.

How the values were obtained:
[1] = target: T1, PKC-ε (UniProt Q02156 1-737); test: cell-based or functional assay
T1 sequence (looked up): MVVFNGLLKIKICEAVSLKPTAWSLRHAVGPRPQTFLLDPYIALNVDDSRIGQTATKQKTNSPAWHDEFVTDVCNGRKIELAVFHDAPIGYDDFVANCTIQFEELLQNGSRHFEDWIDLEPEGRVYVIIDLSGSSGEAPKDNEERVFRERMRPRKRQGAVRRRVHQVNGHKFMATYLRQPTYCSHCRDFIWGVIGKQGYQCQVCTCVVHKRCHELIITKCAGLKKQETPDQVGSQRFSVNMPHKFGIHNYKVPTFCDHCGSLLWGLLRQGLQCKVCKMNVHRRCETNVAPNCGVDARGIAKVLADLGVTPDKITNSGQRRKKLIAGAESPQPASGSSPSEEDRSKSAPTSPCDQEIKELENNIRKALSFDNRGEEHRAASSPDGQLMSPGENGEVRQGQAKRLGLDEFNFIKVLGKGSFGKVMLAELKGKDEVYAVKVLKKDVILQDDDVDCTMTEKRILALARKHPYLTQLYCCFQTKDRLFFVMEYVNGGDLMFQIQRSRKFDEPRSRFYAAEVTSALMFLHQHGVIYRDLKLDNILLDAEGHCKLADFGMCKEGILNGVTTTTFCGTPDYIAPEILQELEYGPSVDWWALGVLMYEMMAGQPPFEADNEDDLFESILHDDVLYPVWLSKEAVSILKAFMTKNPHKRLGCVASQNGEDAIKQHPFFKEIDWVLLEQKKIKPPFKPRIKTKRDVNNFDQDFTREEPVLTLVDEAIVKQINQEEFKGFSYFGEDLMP

[2] = target: PKC-α (UniProt P17252 1-672, limits assumed); test: cell-based or functional assay
[3] = target: PKC-βI (UniProt P05771-1 1-671, limits assumed); test: cell-based or functional assay
Sequence of PKC-βI (P05771 whole entry): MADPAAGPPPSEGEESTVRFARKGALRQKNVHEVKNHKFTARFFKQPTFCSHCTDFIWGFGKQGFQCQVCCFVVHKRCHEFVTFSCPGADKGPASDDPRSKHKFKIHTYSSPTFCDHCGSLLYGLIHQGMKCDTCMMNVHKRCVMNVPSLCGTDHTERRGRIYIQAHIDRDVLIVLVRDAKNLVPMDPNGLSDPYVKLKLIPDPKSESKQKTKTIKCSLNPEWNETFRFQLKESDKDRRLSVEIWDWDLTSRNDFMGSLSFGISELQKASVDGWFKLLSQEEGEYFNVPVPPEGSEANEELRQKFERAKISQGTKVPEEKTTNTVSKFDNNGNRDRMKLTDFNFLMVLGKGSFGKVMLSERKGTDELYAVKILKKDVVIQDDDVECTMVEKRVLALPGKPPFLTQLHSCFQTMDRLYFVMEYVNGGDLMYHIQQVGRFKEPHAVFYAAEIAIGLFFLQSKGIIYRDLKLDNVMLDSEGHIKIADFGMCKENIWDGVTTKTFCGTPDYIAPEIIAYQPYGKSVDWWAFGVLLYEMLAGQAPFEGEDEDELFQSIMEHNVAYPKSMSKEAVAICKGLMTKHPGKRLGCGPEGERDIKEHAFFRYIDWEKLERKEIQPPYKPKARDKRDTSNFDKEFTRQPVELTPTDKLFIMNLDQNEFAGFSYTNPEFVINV

[4] = target: T2, PKC-ι in extracts of human cell lines (human, UniProt P41743 2-596); test: Western-blot competition, cell extracts: PRE at 10X/20X the anti-PKC iota primary antibody concentration competes with that antibody; band densitometry (lower band = PRE bound)
T2 construct: Denatured on the Western blot membrane; also called PKC-iota (cell extract)
T2 sequence (looked up): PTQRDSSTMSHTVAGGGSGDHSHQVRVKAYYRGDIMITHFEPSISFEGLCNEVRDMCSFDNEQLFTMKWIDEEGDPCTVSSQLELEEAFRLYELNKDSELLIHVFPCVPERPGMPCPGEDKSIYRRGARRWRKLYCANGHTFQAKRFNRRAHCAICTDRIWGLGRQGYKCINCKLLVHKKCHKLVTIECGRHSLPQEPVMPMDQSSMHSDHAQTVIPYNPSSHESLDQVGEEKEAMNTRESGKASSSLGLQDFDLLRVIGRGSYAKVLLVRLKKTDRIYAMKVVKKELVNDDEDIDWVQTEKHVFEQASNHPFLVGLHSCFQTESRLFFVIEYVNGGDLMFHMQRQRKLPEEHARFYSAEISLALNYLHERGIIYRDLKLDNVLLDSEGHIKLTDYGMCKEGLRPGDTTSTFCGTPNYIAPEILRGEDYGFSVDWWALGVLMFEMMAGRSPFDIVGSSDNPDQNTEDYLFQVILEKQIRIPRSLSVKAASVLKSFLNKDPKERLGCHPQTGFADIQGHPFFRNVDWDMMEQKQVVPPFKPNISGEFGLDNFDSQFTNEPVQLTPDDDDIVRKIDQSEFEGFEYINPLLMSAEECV

[5] = target: T3, PKC-ε, purified isoform (UniProt Q02156 1-737); test: competition ELISA on coated purified PKC-ε vs anti-PKC ε antibody; PRE 200 µM
T3 construct: also called PKC-epsilon; epsilon
T3 sequence (looked up): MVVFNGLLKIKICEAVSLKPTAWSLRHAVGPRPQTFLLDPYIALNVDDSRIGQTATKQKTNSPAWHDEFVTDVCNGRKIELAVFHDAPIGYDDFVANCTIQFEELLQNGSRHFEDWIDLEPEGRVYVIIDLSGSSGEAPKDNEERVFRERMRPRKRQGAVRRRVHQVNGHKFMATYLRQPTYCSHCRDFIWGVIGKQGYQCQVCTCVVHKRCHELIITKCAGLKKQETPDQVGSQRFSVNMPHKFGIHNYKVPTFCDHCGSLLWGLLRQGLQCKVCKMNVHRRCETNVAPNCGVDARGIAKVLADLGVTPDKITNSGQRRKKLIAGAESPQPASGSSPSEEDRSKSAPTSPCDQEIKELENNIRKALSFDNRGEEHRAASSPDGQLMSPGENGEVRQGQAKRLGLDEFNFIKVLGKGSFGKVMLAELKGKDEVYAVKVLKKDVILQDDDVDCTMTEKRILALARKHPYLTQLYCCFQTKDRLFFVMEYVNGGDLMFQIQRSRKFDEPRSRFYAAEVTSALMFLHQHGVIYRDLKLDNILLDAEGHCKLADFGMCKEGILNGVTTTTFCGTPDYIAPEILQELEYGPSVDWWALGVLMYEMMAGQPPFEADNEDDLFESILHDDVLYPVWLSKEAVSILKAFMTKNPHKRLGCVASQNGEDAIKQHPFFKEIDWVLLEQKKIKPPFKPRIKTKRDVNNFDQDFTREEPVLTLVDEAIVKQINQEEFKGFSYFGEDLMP

[6] = target: T3, PKC-ε, purified isoform; test: competition ELISA on coated purified PKC-ε vs anti-PKC ε antibody; PRE 50 µM
[7] = target: T3, PKC-ε, purified isoform; test: competition ELISA on coated purified PKC-ε vs anti-PKC ε antibody; PRE 100 µM
[8] = target: T4, PKC-ζ in extracts of human cell lines (human, UniProt Q05513 1-592); test: Western-blot competition, cell extracts: PRE at 10X/20X the anti-PKC zeta primary antibody concentration competes with that antibody; band densitometry (lower band = PRE bound)
T4 construct: Denatured on the Western blot membrane; also called PKC-zeta (cell extract)
T4 sequence (looked up): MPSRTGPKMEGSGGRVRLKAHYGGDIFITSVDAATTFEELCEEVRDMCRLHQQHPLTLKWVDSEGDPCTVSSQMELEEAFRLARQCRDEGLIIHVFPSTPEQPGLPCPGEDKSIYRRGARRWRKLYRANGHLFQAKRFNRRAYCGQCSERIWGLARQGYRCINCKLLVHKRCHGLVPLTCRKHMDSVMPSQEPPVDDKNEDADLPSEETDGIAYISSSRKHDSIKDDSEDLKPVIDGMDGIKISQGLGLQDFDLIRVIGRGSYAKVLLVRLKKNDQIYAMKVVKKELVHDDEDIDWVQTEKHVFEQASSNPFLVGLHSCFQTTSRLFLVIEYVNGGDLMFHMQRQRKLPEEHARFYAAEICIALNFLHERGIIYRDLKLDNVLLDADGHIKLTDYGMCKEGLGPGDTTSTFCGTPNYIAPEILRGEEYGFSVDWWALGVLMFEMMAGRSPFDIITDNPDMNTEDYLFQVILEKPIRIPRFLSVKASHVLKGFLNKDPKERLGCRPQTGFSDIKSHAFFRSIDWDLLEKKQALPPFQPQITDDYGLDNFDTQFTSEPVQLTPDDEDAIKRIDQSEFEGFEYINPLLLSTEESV

[9] = target: T2, PKC-ι in extracts of human cell lines; test: Western-blot competition, cell extracts: PRE at 10X/20X the anti-PKC iota primary antibody concentration competes with that antibody; band densitometry (lower band = PRE bound); remark: listed apart in the source
[10] = target: T5, PKC-βII, purified isoform (UniProt P05771-2 1-673); test: purified isoform competition ELISA, summary grade
T5 construct: also called PKC-beta II; beta 2
T5 sequence (P05771 other isoform, or with tags, fused parts or gaps limits assumed): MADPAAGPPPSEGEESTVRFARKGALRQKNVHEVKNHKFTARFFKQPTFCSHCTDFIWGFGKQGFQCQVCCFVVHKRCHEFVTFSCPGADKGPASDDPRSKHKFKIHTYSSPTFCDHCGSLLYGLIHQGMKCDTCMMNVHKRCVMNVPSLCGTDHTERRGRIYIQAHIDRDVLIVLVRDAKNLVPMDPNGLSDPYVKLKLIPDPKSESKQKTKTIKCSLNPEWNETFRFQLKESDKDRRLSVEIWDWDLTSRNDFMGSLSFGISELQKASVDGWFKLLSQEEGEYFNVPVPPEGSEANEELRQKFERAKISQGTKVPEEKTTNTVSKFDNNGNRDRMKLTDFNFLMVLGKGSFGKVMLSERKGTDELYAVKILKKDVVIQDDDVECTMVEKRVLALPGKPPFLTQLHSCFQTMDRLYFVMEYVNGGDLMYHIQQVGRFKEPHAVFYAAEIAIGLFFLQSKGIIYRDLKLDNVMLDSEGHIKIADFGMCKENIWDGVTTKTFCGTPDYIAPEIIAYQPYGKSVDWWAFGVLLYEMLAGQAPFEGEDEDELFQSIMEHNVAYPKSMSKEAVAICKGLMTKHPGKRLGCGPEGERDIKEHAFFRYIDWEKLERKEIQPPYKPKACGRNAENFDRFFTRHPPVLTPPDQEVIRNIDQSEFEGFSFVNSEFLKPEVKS

[11] = target: T4, PKC-ζ in extracts of human cell lines; test: Western-blot competition, cell extracts: PRE at 10X/20X the anti-PKC zeta primary antibody concentration competes with that antibody; band densitometry (lower band = PRE bound); remark: listed apart in the source

| Binder | % Inhibition of kinase activity (Kinase-Glo), compound at 5.0 µM [1] | % Inhibition of kinase activity (Kinase-Glo), compound at 30.0 µM [1] | % Inhibition of kinase activity (Kinase-Glo), compound at 5.0 µM [2] | % Inhibition of kinase activity (Kinase-Glo), compound at 30.0 µM [2] | % Inhibition of kinase activity (Kinase-Glo), compound at 5.0 µM [3] | % Inhibition of kinase activity (Kinase-Glo), compound at 30.0 µM [3] | further results |
| --- | --- | --- | --- | --- | --- | --- | --- |
| Ac-FRRCFRLGGGGGGGAKGIQEVKGGDAQNLIGISI-NH2 [Compound TIM 18 (PRE 3 and PKI 4)] | -28% | 1% | 100% | 100% | 76.3% | 76.1% | – |
| Ac-KDAQNLIGISI-NH2 (also called peptide recognition element 4) [PRE 4] | – | – | – | – | – | – | binding result [4]: binds |
| Ac-RDAQNLIGISI-NH2 (also called peptide recognition element 11) [PRE 11] | – | – | – | – | – | – | relative binding capacity [5]: 9.84%; relative binding capacity [6]: 2.25%; relative binding capacity [7]: 13%; binding result [8]: no binding (tested: 20X the primary antibody concentration) |
| Ac-KDANQLIGISI-NH2 (also called peptide recognition element 6) [PRE 6] | – | – | – | – | – | – | binding result [9]: no binding (tested: 20X the primary antibody concentration); binding result [10]: no binding; binding result [11]: no binding (tested: 20X the primary antibody concentration) |
| Ac-FRRCFRLGGGGGGGRRKKGGKDFVVKR-NH2 [Compound TIM 20 (PRE 1 and PKI 4)] | -9% | -29% | 19.8% | 0% | 6.7% | 15.1% | – |
